# In US20100129369A1 (Eli Lilly, published 2010):
# T1: PlexinA2-ECD-Fc (human, UniProt O75051 35-1237)
# T1 construct: extracellular domain; Bought reagent
# T1 sequence (looked up): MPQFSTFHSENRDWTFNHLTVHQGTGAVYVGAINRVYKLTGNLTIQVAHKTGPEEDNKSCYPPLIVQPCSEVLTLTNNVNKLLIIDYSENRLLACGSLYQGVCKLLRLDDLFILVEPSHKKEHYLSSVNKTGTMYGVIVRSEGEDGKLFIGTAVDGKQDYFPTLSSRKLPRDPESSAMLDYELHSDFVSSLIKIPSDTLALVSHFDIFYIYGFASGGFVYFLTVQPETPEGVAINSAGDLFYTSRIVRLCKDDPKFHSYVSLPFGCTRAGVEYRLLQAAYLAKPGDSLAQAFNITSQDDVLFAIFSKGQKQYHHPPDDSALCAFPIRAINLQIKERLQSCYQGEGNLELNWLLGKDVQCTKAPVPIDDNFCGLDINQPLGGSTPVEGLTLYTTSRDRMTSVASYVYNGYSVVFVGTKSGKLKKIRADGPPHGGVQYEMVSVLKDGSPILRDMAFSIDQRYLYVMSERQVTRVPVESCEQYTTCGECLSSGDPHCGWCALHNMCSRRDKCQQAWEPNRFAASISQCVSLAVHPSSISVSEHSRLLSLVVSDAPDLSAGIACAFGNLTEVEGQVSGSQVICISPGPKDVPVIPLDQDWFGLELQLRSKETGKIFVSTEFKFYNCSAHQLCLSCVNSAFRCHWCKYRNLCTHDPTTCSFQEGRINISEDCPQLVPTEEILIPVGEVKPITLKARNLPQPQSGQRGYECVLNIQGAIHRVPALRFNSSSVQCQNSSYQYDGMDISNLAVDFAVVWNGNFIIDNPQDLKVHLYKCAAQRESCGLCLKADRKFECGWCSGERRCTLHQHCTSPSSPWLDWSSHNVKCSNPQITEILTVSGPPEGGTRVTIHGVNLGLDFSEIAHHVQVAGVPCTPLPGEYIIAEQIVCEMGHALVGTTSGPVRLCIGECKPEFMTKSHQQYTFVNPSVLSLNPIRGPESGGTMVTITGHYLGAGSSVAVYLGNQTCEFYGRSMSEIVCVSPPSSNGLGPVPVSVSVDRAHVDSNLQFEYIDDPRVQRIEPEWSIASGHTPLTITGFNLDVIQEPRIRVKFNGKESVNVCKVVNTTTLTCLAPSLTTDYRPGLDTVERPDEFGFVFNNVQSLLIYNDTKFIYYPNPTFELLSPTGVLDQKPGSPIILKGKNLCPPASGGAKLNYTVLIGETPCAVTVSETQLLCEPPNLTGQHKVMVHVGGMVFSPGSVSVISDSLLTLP
# Tests used:
# PlexinA2-ECD-Fc = target: T1, PlexinA2-ECD-Fc; assay: ELISA, coated ECD-Fc, antibody 77.160 ng/mL
# Human c-Met-Flis-Fc ECD = target: T2, Human c-Met-Flis-Fc ECD (human); assay: ELISA, coated ECD-Fc, antibody 77.160 ng/mL
# T2 construct: also called human c-Met extracellular domain (ECD)-Fc-Flis fusion; Human cMet-ECD-Fc-Flis
# T2 sequence (chain, as listed by the source limits assumed): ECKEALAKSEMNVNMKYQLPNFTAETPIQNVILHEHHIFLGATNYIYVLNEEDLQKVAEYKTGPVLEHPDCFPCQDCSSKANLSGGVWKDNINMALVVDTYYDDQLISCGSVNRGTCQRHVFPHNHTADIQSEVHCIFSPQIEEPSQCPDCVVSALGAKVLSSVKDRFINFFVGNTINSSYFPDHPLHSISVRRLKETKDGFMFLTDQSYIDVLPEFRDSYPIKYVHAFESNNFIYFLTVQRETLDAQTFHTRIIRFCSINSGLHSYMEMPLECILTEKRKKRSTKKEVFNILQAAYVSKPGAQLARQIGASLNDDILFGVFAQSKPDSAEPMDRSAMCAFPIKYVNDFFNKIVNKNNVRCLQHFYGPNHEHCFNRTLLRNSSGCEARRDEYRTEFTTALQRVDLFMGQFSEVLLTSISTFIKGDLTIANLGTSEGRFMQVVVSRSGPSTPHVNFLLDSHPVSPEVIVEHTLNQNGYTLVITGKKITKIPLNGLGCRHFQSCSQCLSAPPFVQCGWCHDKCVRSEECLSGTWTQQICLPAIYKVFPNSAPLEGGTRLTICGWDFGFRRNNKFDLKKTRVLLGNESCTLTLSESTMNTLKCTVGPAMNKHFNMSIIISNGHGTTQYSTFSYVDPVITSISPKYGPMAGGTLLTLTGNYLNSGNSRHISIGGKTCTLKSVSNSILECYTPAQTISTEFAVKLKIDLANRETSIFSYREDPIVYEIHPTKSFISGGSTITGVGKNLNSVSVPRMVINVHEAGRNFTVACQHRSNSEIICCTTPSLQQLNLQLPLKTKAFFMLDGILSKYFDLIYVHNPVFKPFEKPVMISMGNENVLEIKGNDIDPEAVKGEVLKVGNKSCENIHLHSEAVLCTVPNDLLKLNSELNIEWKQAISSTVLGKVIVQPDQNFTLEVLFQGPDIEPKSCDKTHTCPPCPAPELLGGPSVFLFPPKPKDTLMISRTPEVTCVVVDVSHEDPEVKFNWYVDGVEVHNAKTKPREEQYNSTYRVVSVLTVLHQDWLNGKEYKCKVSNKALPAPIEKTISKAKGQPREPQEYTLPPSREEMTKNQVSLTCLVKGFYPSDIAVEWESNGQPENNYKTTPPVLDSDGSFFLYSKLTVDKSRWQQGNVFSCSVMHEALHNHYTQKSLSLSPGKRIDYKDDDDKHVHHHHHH
binder,measurement,setting,value
"C8-6 (antibody, human IgG2, kappa, V domains shown, Called IgG4, kappa; also called Mab C8-6) VH: QVQLVQSGAEVKKPGASVKVSCKASGYTFTDYYMHWVRQAPGQGLEWMGRVNPNRGGTTYNQKFEGRVTMTTDTSTSTAYMELRSLRSDDTAVYYCARTNWLDYWGQGTTVTVSS VL: DIQMTQSPSSLSASVGDRVTITCSVSSSVSSIYLHWYQQKPGKAPKLLIYSTSNLASGVPSRFSGSGSGTDFTLTISSLQPEDFATYYCIQYSGYPLTFGGGTKVEIKR",Average A450 nm,PlexinA2-ECD-Fc,0.078 A450 nm
same,Average A450 nm,Human c-Met-Flis-Fc ECD,4 A450 nm
